# B1: Klf4 specific dsDNA EMSA (dsDNA)
# DNA 1: GGAGGGGTGTGGGGCTG
# DNA 2: CAGCCCCACACCCCTCC
# Key:
# Klf4-GFP = Klf4-GFP (Homo sapiens, UniProt O43474 1-513); assay: EMSA; poly-d(IC) 37.5 ng; Kd plotted in ED Fig. 2c but value not in material; EMSA: 25 mM Tris pH 7.4, 125 mM KCl, 6% glycerol, 1 mM DTT, 0.1 mg/ml BSA, 7.5 nM Cy5-dsDNA, 37.5 ng poly-d(IC), 20 min at 4 °C; conditions: protein: recombinant; tags: C-terminal GFP; MBP removed with 3C protease; label: Cy5 at 3' end of strand 1 (so in the source); blunt
# Sequence of Klf4-GFP (O43474 whole entry): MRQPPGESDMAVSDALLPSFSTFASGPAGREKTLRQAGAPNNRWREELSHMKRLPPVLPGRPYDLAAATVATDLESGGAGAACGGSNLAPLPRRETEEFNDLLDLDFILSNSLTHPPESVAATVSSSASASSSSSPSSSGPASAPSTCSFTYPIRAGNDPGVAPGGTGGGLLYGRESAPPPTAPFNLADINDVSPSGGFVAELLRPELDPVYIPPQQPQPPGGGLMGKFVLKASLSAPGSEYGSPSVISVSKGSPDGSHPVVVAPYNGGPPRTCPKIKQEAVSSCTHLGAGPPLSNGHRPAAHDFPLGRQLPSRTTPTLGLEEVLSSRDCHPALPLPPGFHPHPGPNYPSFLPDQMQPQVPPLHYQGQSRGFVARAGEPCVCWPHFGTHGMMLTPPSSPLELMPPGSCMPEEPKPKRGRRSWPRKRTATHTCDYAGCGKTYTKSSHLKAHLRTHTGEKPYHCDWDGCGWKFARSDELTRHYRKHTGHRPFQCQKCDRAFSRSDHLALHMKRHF
# MBP-Klf4-GFP = MBP-Klf4-GFP (Homo sapiens, UniProt O43474 1-513); assay: EMSA; poly-d(IC) 37.5 ng; Kd value not in material; EMSA: 25 mM Tris pH 7.4, 125 mM KCl, 6% glycerol, 1 mM DTT, 0.1 mg/ml BSA, 7.5 nM Cy5-dsDNA, 37.5 ng poly-d(IC), 20 min at 4 °C; conditions: protein: recombinant, tags: N-terminal MBP (3C-cleavable), label: Cy5 at 3' end of strand 1 (so in the source), blunt
# Sequence of MBP-Klf4-GFP (O43474 whole entry): as above
binder,measurement,setting,value
B1,binding result,Klf4-GFP,binds
same,binding result,MBP-Klf4-GFP,binds

# Source: article doi:10.1101/2020.09.24.311712, “Surface condensation of a pioneer transcription factor on DNA”
